According to paper PMC8837617:

Target: MAPK ERK2 (human), P28482
Experiment: FP
Conditions: modification not given

Sequence of MAPK ERK2 (human), P28482 (P28482 whole entry): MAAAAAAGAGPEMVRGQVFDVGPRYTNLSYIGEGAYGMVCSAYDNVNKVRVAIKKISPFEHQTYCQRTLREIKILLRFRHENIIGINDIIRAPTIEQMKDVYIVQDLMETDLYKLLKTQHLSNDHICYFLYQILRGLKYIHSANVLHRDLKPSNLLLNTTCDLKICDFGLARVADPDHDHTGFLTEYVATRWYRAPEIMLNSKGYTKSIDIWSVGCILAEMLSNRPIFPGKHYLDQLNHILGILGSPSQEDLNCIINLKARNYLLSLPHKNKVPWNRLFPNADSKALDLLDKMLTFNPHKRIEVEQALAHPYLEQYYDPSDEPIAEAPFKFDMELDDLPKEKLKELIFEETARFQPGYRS

Row | Binder | Ki
1 | QGKRKALKLNFANP [MKK4] | 431 µM
2 | SKGKKRNPGLKIPK [MKK6] | 65 µM
